The nanobody polyreactivity screen of Harvey et al. (2022)

assay: yeast display, Sf9 membrane polyspecificity reagent, FACS + sequencing; frameworks hold sequencing errors
Procedure, shortened: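 After 36–48 hours of galactose induction, yeast (Saccharomyces cerevisiae BJ5465) displaying a synthetic nanobody library were stained at 4 °C for 1 hour with 10% biotinylated, detergent-solubilized Sf9 membrane reagent. Streptavidin microbeads enriched the stained cells before FACS sorting into low and high (top ~1%) gates on anti-HA and streptavidin fluorescence. Each clone's polyreactivity label reflects its gate of origin.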

Sequence	polyreactivity (PSR sort gate)
QVQLVESGGRLVQAGGSLRLSCAASGRILYVNNMGWYRQAPGKERELVAGITSRVGSTYYADSVKGRFTISRDNAKNTVYLQMNSLKPEDSAVYYCNARSTWRHRRDQVDFDYWGQGTQVSVSS	low polyreactivity
QVQLVESGGGIVQAGGSLRLSCAASGRTFDWYAMGWSRQAPGKERELVAAIDSIGGDTYYADSVKGRFTISRDNAKNTVYLQMNSLKPEDTAVYYCAALPWYDWEYEYWGQGTQVTVSS	high polyreactivity
PVQLVESGGGLVQAGGSLRLSCAASGSTSSYYAMGWYRQAPGKERELVAAIRTSGRTYYADSVKGRFTISRDNAKNTVYLQMNSLQPEDTAVYYCNAGYVSPDYDSWGQGTHVTVSS	high polyreactivity
QVQLVESGGGLVQAGGSLRLSCAASGFTFYRNAMGWYRKAPGKERELVAAISWSGDSTYYADSVKGRFTISRDNAKNTVYLQMNSLKPEDTAVYYCAKSRYTALTNHWSHDYWGQGTQVTVSS	low polyreactivity
QVQLVESGGGLVQAGGSLRLSCAASGSTFEDYPLGWYRQAPGKERELVAAISHIGGSTYYADSVKGRFTISRDNAKNTVYLQMNSLKPEDTAVYYCAKGGFSSKFDYWGQGTQVTVSS	low polyreactivity
QVQLVESGGGLVQAGGSLRLSCAPSGIILGYYAMGWYRQAPGKERELVAAISSGGRTYYADSVKGRFTISRDNAKNTVYLQMNSLKPEDTAVYYCAADDTRGREEYDYWGQGTQVTVSS	high polyreactivity
QVQLVESGGGLVQAGGSLRLSCAASGLIFYYYVMGWYRQAPGKERELVARISTSGGSTYYADSVKGRFTISRDNAKNTVYLQMNSLKPEDTAVYYCAARGYRQYGWDGYWGQGTQVTVSS	low polyreactivity
QVQLVESGGGLVQEGGSLRLSCAASGIIFLWYTMGWYRQAPGKERELVATISWAGGSTYADSVKGRFTISRDNAKNTVYLPMNSLKPEDTAVYYCNTEIYVDIISDYGYWGQGTQVTVSS	low polyreactivity
QVQLVESGGGLVQAGGSLRLSSAASGGIFSSYAMGWYRQAPGKERELVAAISGSGGRTYYADSVKGRFTISRDNAKNTVYLQMNSLKPEDTSVYYCAAYPVNRVDYRYDYWGQGTQVTVSS	high polyreactivity
QVQLVESGGGLVQAGGSLRLSCAASVITSPYAMGWYRQAPGKERELVAAISWSGSSTYYADSVKGRFTISRDNAKNTVYLQINSLKPEDTAVYYCATLVSDSRSRRFGYEYWGQGSQVTVSS	high polyreactivity
QVQLVESGGGVVQAGGSLRLSCAASGRIFHYNAMGWYRQAPGKERELVAAISTGGSSNYADSVKGRFTISRDNAKNTVYLQMNSLKPEDTAVYYCAADHPVTYPTSKFDYWGQGTQVTVSS	low polyreactivity
QVQHVESGGGLVQAGGSLRLSCAASGRTFKYNAMGWYRQAPGKEWELVAVIRYSGGTTYYADSVKGRFTISRDNAKNTVYLQMNSLKPEDTAVYYCAADSWSRSVNYYYWVQGTQVTVSS	low polyreactivity
QVQLVESGGGLVQAGGSLRLSCAASGSIFGNNAMGWYRQAPGKERELVAGINYSGGRTYYADSVKGRFTISRDNAKNTVYLQMNSLKPEDTAVYYCAADGHRQVGWWRFEYGYWGQGTQVTVSS	low polyreactivity
QVQLVESGGGLVQAGGSLRLSCAASGRIFDGNVMGWYRQAPGKERELVAAISRSGVRTYYADSVKGRFTISRDNAKKTVYLQMNSLKPEDTAVYYCAADVYRQFYPFKSDYWGQGTQVTVSS	high polyreactivity
QVQLVESGGGLVQEGGSLRLSCAASGRTFYRNAMGWYRQAPGKERELVAAISSDDSTNYADSVKGRFTISRDNAKNTVYLQMNSLKPEDTAVYYCNADYYYGYEYDYWGQGSQVTVSS	low polyreactivity
QVQLVESGGGLVQAGGSLRLSCAASGFTFPYAMGWYTQAPGKERELVAGISWSGGSTYYADSVKGRFTISRDNAKNTVYLQMNSLKPEDTAVYYCNKYVQSGGTYDYWGQGTQVTVSS	low polyreactivity
QVQLVESGGGLVQSGGSLRLSCAASGFTLYYYAMGWYRQAPGKERELVARISGSSGRTYYADSVKGRFTISRDNAMNTFYLQMNSLKPEDTAVYFCAARYYTSATMDYWGQGTQVTVSS	high polyreactivity
QVQLVESGGGLVQAGGSLRLICAASGLIFWGYAMGWYRQAPGKERELVAAISSSGGSTYYADSVKGRFTISRDNAKNTVYLQINSLKPEDTAVYYCNADYTYYPGYDYWGQGTLVTVSS	low polyreactivity
QVQLVESGGGLVQAGGSLRLSCAASGRTFGGNAMGWYRQAPGKERELVATIRSSSSTNYADSVKGRFTISRDNAKNTVYVQMNSLKQEDTAVYYCNAARPDALNTYGYGFDYWGQGTQVTVSS	low polyreactivity
QVQLVESGGGLLQAGGSLRLSCAASGSTFYDNAMGWYRQAPGKERELVAAISYSGASTYYADSVKGRFTISRDNEKNTVYLQMNSLKPEDTAVYYCAKTFYSLYWGQGTQVTGSS	low polyreactivity
QVQLVESGGCLVQSGGRLRLSCAASGRIFYPYVMGWYRQAPGKEREFVAAITRSGGSTNADSVKGLFTISRDNAKNTVYLLLNSLKPEDTAVYYCARRVNRRYPFYQRDYWGQGTQVTVSS	high polyreactivity

Sequence	polyreactivity (PSR sort gate)
QVQLVESGGGLVQAGGSLRLSCAASGRIFAVYAMGWYRQAAGKERELVAAITSTGSTNYADSVKGRFTISRDNAKNTVYLQMNSLKPEDTAVYYCAKRRHSSWLRYNYWGQGTQVTVSS	low polyreactivity
QVQLVESGGGLVQAGGSLRLSCAASGSIFRYNAMGWYRQAPGKERELVAAITSGDSTYYADSVKGRFTISRDNAKNTVYLQMNSLKPEDTAVYYCAADLRYIYWSYYYWGQGTQVTVSS	low polyreactivity
QVQLVESGGGLVQAGGSLRLSCAASGRTIFYYAMGWYRQAPGKERELVATITKRGGSTYYADSVKGRFTISRDNAKNTVYLQMNSLKPEDTALYYCAARFVGWRGGRAYYYWGQGTQVTVAS	high polyreactivity
QVQLVESGGGLVQAGGRLRLSCAASGFNFHYYAMGWYRQAPGKERELVAAISWSSGRTYYADSVKGRFTISRDNEKNTVYLQMNSLKPEDTAVYYCAASSYNRGDYWGQGTQVTVSS	high polyreactivity
QVQLVESGGGLVQAGGSLRLSCAASGSIFGTNAMGWYRQAPGKERELVAAISTSADITYYADSVKGRFTISRDNAKNTVYLQMNSLKPEDTAVYYCNKRKWPTFTYAMNYWGQGTQVTVSS	low polyreactivity
QVQLQESGGGLVQAGGSLRLSCAASGAIFDGFNMGWYRQAPGKEGEFVAAISYGASTDYADSVKGRFTVSRDNAKNSVYLQMNSLKPEDTAVYYCAVYDELYHVLVYWGRGTQVTVSS	low polyreactivity
QDQLVESGGGLVQAGGSLRLICAASGSNLNNYAMGWSRQAPGKERELVAAISSSGGTNYADSVKGRFTISRDNAKNTVYLQMNSLKPEDTAVYYCNADVLEGGYDYWGQGPQVTVSS	low polyreactivity
QVQLVESVGGLVQAGGSLRLSCAASGITSGTYAMGWYRQAPGKERELVAAISSSGGRTYYADSVKGRFTISRDNAKNTVYLQMNSLKPEDTAVYYCAARIRLSLRTGYDYWGQGTQVTVSS	high polyreactivity
QVQLLESGGRLVQAGGSLRLSCMASGSILGDRMSWYRQAPGKEHELVATIYDGGITYYADSMKGRFTISRDNAKNTVYLQMNSLRPEDTAVYYCGASFEGYRYHVYCGQGTQVTVSS	low polyreactivity
QVQLVESGGGLVQAGGSLRLRCAATGSIFTKYAMGWYRQAPGKERELVAAISWSGSRTRYADSVKGRFTISRDNAKNTVYLQMNSLKPEDTAVYYCAAEIAASYRPEYDYWGQGTQVTVSS	high polyreactivity
QVQLVESGGGLVQAGGSLRLSCAASGGTLATYAMGWYRQAPGKERELVARIRIGGSTNYADSVKGRFTISRDNAKNTVYLQMNSLKPEDTAVYYCNKYSVLSRQRYSHPVNYDSWGQGTQVTVSS	high polyreactivity
QVQLVESGGGLVQAGGSLRLSCAASGRTFRSNGMGWYRQAPGKERQLVATISEGGGSTYYADSVKGRFTISRDNAKNTVYLQMNSLKPEDTAVYYCAATVYPSVYGENHYGYWGQGTQVTVSS	high polyreactivity
QVQLVESGGGLVQAGGSLRLSCAASGSTFRYYAMGWYRQAPGKERELVARISWRGGSTYYADSVKGRFTISRDNAKNTVYLQMNRLKPEDTAVYYCAAVRWVRYRTSAYEYWGQGTLVTVSS	high polyreactivity
QVQLVESVVGLVQAGGSLRLSSAASGSIFPYYVMGWYRQAPGKERELVAAISSRGTSTYYADSVKGRFTLSRDNAKNSVYLQMNSLKPEDTAVYYCAAAYVKFYGYSAEYDYCGQGTQVTVSS	low polyreactivity
QVQLVESGGGLVQAGGSLRLSCAASGRTFVYNAMGWYRQAPGKERELVAAITSGGSTYYADSVKGRFTMSRDNAKNTVYLQMNSLKPEDTAVYYCDGYKRGYYWGQGTQVTVSS	high polyreactivity
QVQLVESGRGLVQAGGSLRLSCAASGRTLSQYAMGWYRQAPGKERELVAAITRSGGSTYYADSVTGRFTISRDISKNTVYLQMNSLKRDDTAVYYCNITLYTTYDYWGQGTQVTVSS	low polyreactivity
QVQLVESVGGLVQAGGSLRLSCAASGSTFYPNAMGWYRQAPGKEREFVAAITWSGGRTYYADSVKGRFTNSRDNAKNTVYLQMNSLKPEDTAVYYCSKGGYQHYCGQGTQVTVSS	high polyreactivity
QVQLVESGGCLVQAGGSLRLSCAASGSTFKRYAMGWYRQAPGKVGELVAAISKSGGSTYYADSVKGRFTISRDNAKNTDYLQMNCLNAEDTAVYYCAAGRSIGALYYGMDYWGEGTQVTVSS	high polyreactivity
QVQLVESGGGLVQAGGSLRLSCAASGSIFRTNAMGWYREAPGKERELVAAITGRGGSTYYADSVKGRFTISRDYAKNTVYLQMNSLKPEDTAVYYCAAAYGTWKFLATTEDYWGQGTQVTVSS	high polyreactivity
QVQHVESGGGLVQAGGSLRLSCAASGLTFSYNAMGWYRQAPAKERELVAAIRSGGSTNYADSVKGRFTISRDNAKNTVYLEMYSLKPVDSAVYFCADKSVTGVFRYYYWGQGSQVTVSS	low polyreactivity
